Laboratory results reported in publication PMC4034487, “Immobilization of a Pleurotus ostreatus Laccase Mixture on Perlite and Its Application to Dye Decolourisation” (BioMed Research International, 2014).

Substrate: CCn1c(=NN=c2sc3cc(S(=O)(=O)O)ccc3n2CC)sc2cc(S(=O)(=O)O)ccc21
Experiment: purified protein
Type: biochemical, Pleurotus ostreatus
Settings: free soluble enzyme, 0.1 M sodium citrate pH 3.0, 25°C (general assay)

B1: POXC (Pleurotus ostreatus) (protein)
chain: AIGPAGNMYIVNEDVSPDGFARSAVVARSVPATDPTPATASIPGVLVQGNKGDNFQLNVVNQLSDTTMLKTTSIHWHGFFQAGSSWADGPAFVTQCPVASGDSFLYNFNVPDQAGTFWYHSHLSTQYCDGLRGPFVVYDPSDPHLSLYDIDNADTVITLEDWYHIVAPQNAAIPTPDSTLINGKGRYAGGPTSPLAIINVESNKRYRFRLVSMSCDPNFTFSIDGHSLLVIEADAVNIVPITVDSIQIFAGQRYSFVLTANQAVDNYWIRANPNLGSTGFVGGINSAILRYAGATEDDPTTTSSTSTPLLETNLVPLENPGAPGPPVPGGADININLAMAFDFTTFELTINGVPFLPPTAPVLLQILSGASTAASLLPSGSIYELEANKVVEISMPALAVGGPHPFHLHGHTFDVIRSAGSTTYNFDTPARRDVVNTGTGANDNVTIRFVTDNPGPWFLHCHIDWHLEIGLAVVFAEDVTSISAPPAAWDDLCPIYNALSDNDKGGIVPS
notes: native purified laccase isoenzyme from P. ostreatus; soluble form
With B1 as the protein, how does the Km read?
Its Km is 30 µM.

What about the kcat of the same protein?
The kcat was 10300 s⁻¹.
